The text below walks through data of IntAct's records for PubMed 18388957.

First the molecules themselves.
B1: Inhibitor of growth protein 1 (Homo sapiens), Q9UK53-2 (parent)
chain: MLSPANGEQLHLVNYVEDYLDSIESLPFDLQRNVSLMREIDAKYQEILKELDECYERFSRETDGAQKRRMLHCVQRALIRSQELGDEKIQIVSQMVELVENRTRQVDSHVELFEAQQELGDTAGNSGKAGADRPKGEAAAQADKPNSKRSRRQRNNENRENASSNHDHDDGASGTPKEKKAKTSKKKKRSKAKAEREASPADLPIDPNEPTYCLCNQVSYGEMIGCDNDECPIEWFHFSCVGLNHKPKGKWYCPKCRGENEKTMDKALEKSKKERAYNR

The assay covers variants of B1. As to conditions: with nqo1_human NQO1, P15559.
As for S126A, the “effect of a mutation on the interaction” value is “disrupting interaction”.
